Measurements as given in article PMC4027161 (Nucleic Acids Research, 2014).

T1: monomeric form of PCNA2 (PCNA2m, R75A-F111E-R143A) (Thermococcus kodakarensis, UniProt Q5JFD3 1-253, R75A | F111E | R143A)
T1 sequence: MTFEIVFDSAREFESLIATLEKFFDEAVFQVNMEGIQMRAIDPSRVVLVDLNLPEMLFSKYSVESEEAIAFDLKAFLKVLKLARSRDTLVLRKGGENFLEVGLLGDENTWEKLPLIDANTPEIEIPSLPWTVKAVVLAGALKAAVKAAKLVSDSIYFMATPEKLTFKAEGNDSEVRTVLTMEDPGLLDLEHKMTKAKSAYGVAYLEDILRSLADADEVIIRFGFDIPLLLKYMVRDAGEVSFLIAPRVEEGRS

B1: Thermococcus kodakarensis PCNA2 (TK0582) (natural protein)
chain: MTFEIVFDSAREFESLIATLEKFFDEAVFQVNMEGIQMRAIDPSRVVLVDLNLPEMLFSKYSVESEEAIAFDLKRFLKVLKLARSRDTLVLRKGGENFLEVGLLGDENTWFKLPLIDANTPEIEIPSLPWTVKAVVLAGALKRAVKAAKLVSDSIYFMATPEKLTFKAEGNDSEVRTVLTMEDPGLLDLEHKMTKAKSAYGVAYLEDILRSLADADEVIIRFGFDIPLLLKYMVRDAGEVSFLIAPRVEEGRS
B2: Thermococcus kodakarensis PCNA1 (TK0535) (natural protein, UniProt Q5JF32 1-249, looked up)
chain: MPFEVVFDGAKEFADLIATASNLIDEAAFKFTEEGISMRAMDPSRVVLIDLNLPESIFSKYEVEEPETIGINMDQFKKILKRGKAKDTLILRKGDENFLEITFEGTAKRTFRLPLIDVEELELELPELPFTAKVVLLGEVLKEGIKDASLVSDAIKFIAKENEFTMKAEGETNEVEIRLTLEDEGLLDLEVEEETKSAYGIRYLSDMVKGIGKADEVILRFGNEMPLQMEYMIRDEGRLTFLLAPRVEE

Assays:
[1] = molecular target: the molecule itself; assay: SEC; Superdex-200 (HR10/30); 100 ug of each protein in 200 ul of 25 mM Tris-HCl pH 8.0, 200 mM NaCl, 0.5 mM EDTA, 10% glycerol; fractions on SDS-PAGE, Coomassie
[2] = molecular target: T1, monomeric form of PCNA2 (PCNA2m, …); assay: as above; conditions: both partners purified
[3] = molecular target: B1; assay: HDX-MS; 15 uM protein; PCNA monomer:TIP monomer 1:1, equilibrated at 4 C for 16 h; 20 mM sodium phosphate, 500 mM NaCl, pH 7.6; exchange at 3 C, 30 s to 60 min; pepsin digestion; conditions: both partners purified
[4] = molecular target: B2; assay: crystal structure; low resolution X-ray structure of the complex, unpublished observation; conditions: both partners purified

binding result [2] | binding result [3] | stoichiometry N [4] [TIP per PCNA monomer] | Binder | stoichiometry N [1]
– | – | – | B1 | 3
– | – | – | B2 | 3
– | – | – | Methanothermobacter thermautotrophicus PCNA (mtPCNA) (natural protein, UniProt O27367 1-244, looked up) MFKAELNDPNILRTSFDAISSIVDEVQIQLSAEGLRLDALDRSHITYVHLELKAELFDEYVCDEPERINVDTEELMKVLKRAKANDRVILSTDEGNLIIQFEGEAVRTFKIRLIDIEYETPSPPEIEYENEFEVPFQLLKDSIADIDIFSDKITFRVDEDRFIASAEGEFGDAQIEYLHGERIDKPARSIYSLDKIKEMLKADKFSETAIINLGDDMPLKLTLKMASKEGELSFLLAPRIEAEE | 3
binds | binds | 1 | Thermococcales inhibitor of PCNA (TIP), encoded by TK0808 (natural protein, Thermococcus kodakarensis, UniProt Q5JH72 1-64, looked up) MDRKLDEFIGDATPKKVSKEKPVRRKKRLKPTSLDSFLPEEHINYFRDLRIGSKKIRNAKIEEL | –
